Source: patent US20260275319A1 (MAX PLANCK GESELLSCHAFT ZUR F RDERUNG DER WISSENSCHAFTEN E V, published 2026)

B1: M. mazei Adriase with C-terminal Myc-tag (enzyme)
chain: TLVIAFIGKNGAVMAGDMREITFEGEKPDREKLEKELYSGSIVTDEEMQKKAEEFGVKITVADCKEKVSERNGVLVGEVSSAEGGVVKKRRLYASAGNFAIAELINTEMTLTSQGKGSNFIAFGNEFTKQVANKCFKDNWTKKSNLQDAVKILILCMETVARKTASVSKQFMIVQTASNADVLKVVEKDRNCGSEQKLISEEDL
notes: also called MM_2909
B2: M. mazei Adriase with C-terminal HA-tag (enzyme)
chain: TLVIAFIGKNGAVMAGDMREITFEGEKPDREKLEKELYSGSIVTDEEMQKKAEEFGVKITVADCKEKVSERNGVLVGEVSSAEGGVVKKRRLYASAGNFAIAELINTEMTLTSQGKGSNFIAFGNEFTKQVANKCFKDNWTKKSNLQDAVKILILCMETVARKTASVSKQFMIVQTASNADVLKVVEKDRNCGSYPYDVPDYA
notes: also called MM_2909

Columns and labels:
[1] = biological target: T1, MtrH of M. mazei (subunit of the MtrA-MtrH complex), from whole cell extract (Methanosarcina mazei); assay: pulldown from M. mazei whole cell extract with Myc-tagged Adriase, LC-MS/MS (Experiment 2.2)
T1 sequence (P80650 1-316, looked up): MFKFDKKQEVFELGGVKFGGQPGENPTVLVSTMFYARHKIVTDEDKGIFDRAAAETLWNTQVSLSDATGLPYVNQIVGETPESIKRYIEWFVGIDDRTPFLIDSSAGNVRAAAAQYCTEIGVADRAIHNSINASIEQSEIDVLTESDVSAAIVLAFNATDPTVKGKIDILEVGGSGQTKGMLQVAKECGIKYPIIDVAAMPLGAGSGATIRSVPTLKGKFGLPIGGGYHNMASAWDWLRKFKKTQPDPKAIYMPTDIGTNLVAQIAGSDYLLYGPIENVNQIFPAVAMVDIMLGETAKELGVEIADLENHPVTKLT

[2] = biological target: T2, MtrE of M. mazei (subunit of the MtrA-MtrH complex), from whole cell extract (Methanosarcina mazei); assay: as above
T2 sequence (P80651 whole entry, looked up): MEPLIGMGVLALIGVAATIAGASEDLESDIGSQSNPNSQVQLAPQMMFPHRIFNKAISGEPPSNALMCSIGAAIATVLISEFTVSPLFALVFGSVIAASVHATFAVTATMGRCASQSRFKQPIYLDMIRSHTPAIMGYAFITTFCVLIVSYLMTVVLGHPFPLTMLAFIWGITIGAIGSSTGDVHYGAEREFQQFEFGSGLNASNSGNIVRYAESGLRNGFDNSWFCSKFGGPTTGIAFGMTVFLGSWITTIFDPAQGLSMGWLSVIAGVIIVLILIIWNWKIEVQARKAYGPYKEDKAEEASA

[3] = biological target: T3, MtrG of M. mazei (subunit of the MtrA-MtrH complex), from whole cell extract (Methanosarcina mazei); assay: as above
T3 sequence (P80656 whole entry, looked up): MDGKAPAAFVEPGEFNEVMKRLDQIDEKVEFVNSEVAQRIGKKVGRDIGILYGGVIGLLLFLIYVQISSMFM

[4] = biological target: T4, MtrB of M. mazei (subunit of the MtrA-MtrH complex), from whole cell extract (Methanosarcina mazei); assay: as above
T4 sequence (P80655 whole entry, looked up): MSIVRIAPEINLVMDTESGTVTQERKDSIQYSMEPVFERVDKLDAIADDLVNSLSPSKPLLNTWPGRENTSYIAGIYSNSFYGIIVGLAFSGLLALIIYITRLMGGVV

[5] = biological target: T1, MtrH of M. mazei (subunit of the …); assay: pulldown from M. mazei whole cell extract with HA-tagged Adriase, LC-MS/MS (Experiment 2.3)
[6] = biological target: T2, MtrE of M. mazei (subunit of the …); assay: as above
[7] = biological target: T3, MtrG of M. mazei (subunit of the …); assay: as above
[8] = biological target: T4, MtrB of M. mazei (subunit of the …); assay: as above
[9] = biological target: T5, MtrF of M. mazei (subunit of the MtrA-MtrH complex), from whole cell extract (Methanosarcina mazei); assay: as above
T5 sequence (P80654 whole entry, looked up): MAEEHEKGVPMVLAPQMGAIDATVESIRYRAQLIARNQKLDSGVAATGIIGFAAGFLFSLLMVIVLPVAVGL

Binder	Intensity (mass spectrometry) [1] [arbitrary units]	Intensity (mass spectrometry) [2] [arbitrary units]	Intensity (mass spectrometry) [3] [arbitrary units]	Intensity (mass spectrometry) [4] [arbitrary units]	Intensity (mass spectrometry) [5] [arbitrary units]	Intensity (mass spectrometry) [6] [arbitrary units]	Intensity (mass spectrometry) [7] [arbitrary units]	Intensity (mass spectrometry) [8] [arbitrary units]	Intensity (mass spectrometry) [9] [arbitrary units]
B1	6.5e+07	2.2e+06	1.2e+06	3.2e+06	–	–	–	–	–
B2	–	–	–	–	2e+08	3.8e+06	1.5e+07	6.2e+06	430000
